Results: US5605671

Assays:
[1] = target: Interleukin-8 receptor molecules on purified human neutrophils
[2] = target: Interleukin-8 receptor molecules on purified human neutrophils; assay: saturation binding of radioligand to purified human neutrophils, analysis of binding curves
[3] = target: Interleukin-8 receptor molecules on purified human neutrophils; assay: radioligand binding to purified human neutrophils, with and without 1000-fold molar excess of nonlabeled IL-8

neutrophil chemotaxis in a Boyden chamber [1]: > 95% | Kd [2]: 0.83 nM | estimated maximum binding sites per cell (binding sites per cell) [2]: 60000 | specific binding as share of total binding [3]: > 90%
Substance: I-125-labeled human recombinant interleukin-8 (ligand)
